Laboratory results: publication doi:10.1101/2023.12.04.569983

Key:
[1] = test system: HP1α-16aa-mEGFP; experiment: EMSA; settings: 20 mM HEPES pH 7.5, 70 mM KCl, 1 mM DTT
[2] = test system: HP1α (untagged, wt); experiment: EMSA; settings: 20 mM HEPES pH 7.5, 70 mM KCl, 1 mM DTT

187 bp DNA
K half [1]: 580 nM | K half [2]: 880 nM
